Assay results from the supplement of paper PMC7125110.
± gives the standard error. For part of these data: This sample holds only a part of the variants without activity.

B1: glmS ribozyme (parent)
chain: AUAAAAGCGCCAGAACUACAGAAAUGUAGUUGACGAGGAGGAGGUUUAUCGAAUUUUCGGCGGAUGCCUCCAAA

What was measured:
Conditions in all cases: with glucosamine-6-phosphate
glucosamine-6-phosphate [1] = variants of: B1; assay: kcat; higher = faster cleavage; RNA array
Outline: (§1)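 Barcoded ribozyme variants on sequenced MiSeq chips were transcribed in situ by E. coli RNA polymerase and followed at 37 °C through a hybridised Cy3 probe. Glucosamine-6-phosphate at 40 μM to 10 mM in HEPES/KCl/Mg(OAc)2 buffer was flowed in, and tiles were imaged over ~14 h. Signals were normalised to baseline and to non-cleaving reference variants, and per-tile medians were fit to one- or two-exponential decays to give kobs. Weighted Michaelis–Menten fits across concentrations gave kcat and KM.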

glucosamine-6-phosphate [2] = variants of: B1; assay: KM; higher = weaker cofactor use; RNA array
Outline: as §1

glucosamine-6-phosphate [3] = variants of: B1; assay: self-cleavage kobs at 160 uM GlcN6P; higher = faster cleavage; RNA array
Outline: as §1

glucosamine-6-phosphate [4] = variants of: B1; assay: self-cleavage kobs at 640 uM GlcN6P; higher = faster cleavage; RNA array
Outline: as §1

glucosamine-6-phosphate [5] = variants of: B1; assay: self-cleavage kobs at 2500 uM GlcN6P; higher = faster cleavage; RNA array
Outline: as §1

glucosamine-6-phosphate [6] = variants of: B1; assay: self-cleavage kobs at 10000 uM GlcN6P; higher = faster cleavage; RNA array
Outline: as §1

glucosamine-6-phosphate [7] = variants of: B1; assay: self-cleavage kobs at 40 uM GlcN6P; higher = faster cleavage; RNA array
Outline: as §1

| Variant | kcat (glucosamine-6-phosphate [1]) [s⁻¹] | KM (glucosamine-6-phosphate [2]) [µM] | self-cleavage kobs at 160 uM GlcN6P (glucosamine-6-phosphate [3]) [s⁻¹] | self-cleavage kobs at 640 uM GlcN6P (glucosamine-6-phosphate [4]) [s⁻¹] | self-cleavage kobs at 2500 uM GlcN6P (glucosamine-6-phosphate [5]) [s⁻¹] | self-cleavage kobs at 10000 uM GlcN6P (glucosamine-6-phosphate [6]) [s⁻¹] | self-cleavage kobs at 40 uM GlcN6P (glucosamine-6-phosphate [7]) [s⁻¹] |
| --- | --- | --- | --- | --- | --- | --- | --- |
| A14U U47C | 0.000442 ± 6.2e-05 | 1430 ± 360 | 4.9e-05 ± 8.6e-06 | 0.000138 ± 1.3e-05 | 0.000238 ± 3.2e-05 | 0.000442 ± 5.2e-05 |  |
| A15C C58U | 3.18e-05 ± 2.2e-06 | 214 ± 97 |  |  | 2.9e-05 ± 1.1e-05 |  |  |
| A15G A42C | 1.26e-05 ± 4.1e-06 |  | < 1e-05 |  |  |  |  |
| A14U U31A | 0.0165 ± 0.0068 |  | 0.00191 ± 0.00038 | 0.00488 ± 0.00072 | 0.00761 ± 0.0014 | 0.028 ± 0.0038 | 0.000492 ± 4e-05 |
| A15C G41C | 3.33e-05 ± 2.9e-06 | 1850 ± 570 |  |  |  | 2.79e-05 ± 1.2e-05 |  |
| A14U G66A | 0.00402 ± 0.0012 | 2120 ± 870 | 0.000254 ± 3.9e-05 | 0.00104 ± 0.00029 | 0.00172 ± 0.0003 | 0.00403 ± 0.00059 | 0.000107 ± 1.8e-05 |
| A14G C68A | 9.34e-05 ± 1.3e-05 | 254 ± 120 | 2.91e-05 ± 1.3e-05 | 7.66e-05 ± 1.6e-05 | 0.000105 ± 3.4e-05 | 7.77e-05 ± 2.1e-05 |  |
| A14G C68G | 0.000237 ± 2.5e-05 | 590 ± 180 | 4.57e-05 ± 1.1e-05 | 0.000123 ± 1.6e-05 | 0.000181 ± 2.1e-05 | 0.000235 ± 2.4e-05 | 3.33e-05 ± 1.1e-05 |
| A14C U54G | 0.00619 ± 0.0017 | 3310 ± 1300 | 0.000219 ± 3.6e-05 | 0.00107 ± 0.00016 | 0.00296 ± 0.00041 | 0.00448 ± 0.00056 | 0.00011 ± 1.7e-05 |
| A15G A48C | 0.000466 ± 1.6e-05 | 2830 ± 210 | 2.29e-05 ± 1.1e-05 | 9.04e-05 ± 1.7e-05 | 0.000212 ± 3.2e-05 | 0.000365 ± 3.6e-05 |  |
| A15C C16U | 0.00405 ± 0.00069 | 3220 ± 830 | 0.000159 ± 4.5e-05 | 0.000777 ± 0.0001 | 0.00235 ± 0.00038 | 0.0029 ± 0.0003 | 4.37e-05 ± 7.4e-06 |
| A14G A33C | 0.000125 ± 5.4e-06 | 1470 ± 220 |  | 3.41e-05 ± 1.4e-05 | 8.25e-05 ± 1.2e-05 | 0.000108 ± 1.2e-05 |  |
| A14G G60A C70G | 1.55e-05 ± 4e-06 |  |  |  |  |  | < 1e-05 |
| A14U G59U | < 1e-05 |  | < 1e-05 |  | < 1e-05 |  |  |
| A14G G35C | < 1e-05 |  | < 1e-05 | < 1e-05 | < 1e-05 |  | < 1e-05 |
| A15C G43A | < 1e-05 |  | < 1e-05 | < 1e-05 |  |  | < 1e-05 |

| Variant | kcat (glucosamine-6-phosphate [1]) [s⁻¹] | KM (glucosamine-6-phosphate [2]) [µM] | self-cleavage kobs at 160 uM GlcN6P (glucosamine-6-phosphate [3]) [s⁻¹] | self-cleavage kobs at 640 uM GlcN6P (glucosamine-6-phosphate [4]) [s⁻¹] | self-cleavage kobs at 2500 uM GlcN6P (glucosamine-6-phosphate [5]) [s⁻¹] | self-cleavage kobs at 10000 uM GlcN6P (glucosamine-6-phosphate [6]) [s⁻¹] | self-cleavage kobs at 40 uM GlcN6P (glucosamine-6-phosphate [7]) [s⁻¹] |
| --- | --- | --- | --- | --- | --- | --- | --- |
| A14G U57G | 0.000171 ± 2.6e-06 | 2380 ± 88 |  | 3.71e-05 ± 8e-06 | 8.67e-05 ± 9.4e-06 | 0.000139 ± 1.3e-05 |  |
| A14G G37C A48G | 1.62e-05 ± 5.8e-06 |  |  |  |  |  |  |
| A14U G44A | 6.83e-05 ± 2.6e-06 | 2730 ± 310 | < 1e-05 |  | 3.21e-05 ± 6.8e-06 | 5.38e-05 ± 6.7e-06 |  |
| A14U G44U | 7.47e-05 ± 1.1e-05 | 3310 ± 1300 |  |  | 3.42e-05 ± 8.1e-06 | 5.55e-05 ± 8.3e-06 | < 1e-05 |
| A15C U55G C70A | 4.71e-05 ± 9.2e-06 |  |  | 5.4e-05 ± 1.4e-05 | 4.46e-05 ± 1.3e-05 | 3.54e-05 ± 1.7e-05 |  |
| A14U C50G | 0.000106 ± 3e-05 |  | 0.000164 ± 3e-05 |  | 9.1e-05 ± 1.6e-05 | 0.000112 ± 5e-05 | 4.12e-05 ± 1.3e-05 |
| A14U A53C | 0.00136 ± 0.00017 | 1970 ± 410 | 9.57e-05 ± 1.5e-05 | 0.000309 ± 3.9e-05 | 0.000834 ± 7.7e-05 | 0.00105 ± 0.00014 | 3.59e-05 ± 9.1e-06 |
| A14C U69G | 4.01e-05 ± 6.9e-06 |  | 6.28e-05 ± 2.1e-05 | 5.28e-05 ± 2.2e-05 | 4.06e-05 ± 9.1e-06 | 3.03e-05 ± 1.2e-05 |  |
| A15C U56A G63C C70A | 5.44e-05 ± 1.8e-05 |  | 5.41e-05 ± 2.2e-05 |  | 7.34e-05 ± 3.6e-05 |  |  |
| A14G A39C | 0.0183 ± 0.0021 | 3470 ± 520 | 0.000699 ± 0.00017 | 0.00281 ± 0.00047 | 0.00921 ± 0.0025 | 0.0134 ± 0.0019 | 0.000225 ± 3.6e-05 |
| A15G C67G | 0.00126 ± 0.0001 | 2600 ± 330 | 7.63e-05 ± 1.2e-05 | 0.000243 ± 2.4e-05 | 0.000654 ± 6.3e-05 | 0.000966 ± 0.00011 |  |
| A15G A39G | 0.024 ± 0.0095 |  | 0.00251 ± 0.00078 | 0.0174 ± 0.0035 | 0.037 ± 0.017 | 0.0199 ± 0.0048 | 0.0013 ± 0.00018 |
| A15G C16U C68G | 5.74e-05 ± 2.6e-05 |  |  | 8.06e-05 ± 1.8e-05 | 8.91e-05 ± 3e-05 |  |  |
| A15C G44A | 2.81e-05 ± 1.7e-07 | 3920 ± 72 | < 1e-05 |  |  | 2.02e-05 ± 9.6e-06 | < 1e-05 |
| A15C G44U | 4.07e-05 ± 6.1e-06 |  | < 1e-05 |  |  |  | < 1e-05 |
| A15C A42G A53C | 0.00239 ± 0.001 |  |  | 0.000469 ± 0.00012 | 0.000746 ± 0.00018 | 0.00192 ± 0.00042 |  |
